For one substance, Kd results are on record in article PMC3439491.

The series has as its target MA-MADS5 full length (A) (Musa acuminata (AAA group, Cavendish subgroup, cv. Giant governor)) (UniProt E9NW24). Briefly: EMSA saturation. The note with it: EMSA with 2 ug recombinant protein or 15 ug nuclear extract, buffer by reference to earlier work; circularization pre-incubation: 60 mM KCl, 8 mM HEPES pH 7.9 …. On the technique in general: In EMSA bound probe runs differently from free probe, usually more slowly.

Chain of MA-MADS5 full length (A) (Musa acuminata (AAA group, Cavendish subgroup, cv. Giant governor)) (E9NW24 entry or part of it): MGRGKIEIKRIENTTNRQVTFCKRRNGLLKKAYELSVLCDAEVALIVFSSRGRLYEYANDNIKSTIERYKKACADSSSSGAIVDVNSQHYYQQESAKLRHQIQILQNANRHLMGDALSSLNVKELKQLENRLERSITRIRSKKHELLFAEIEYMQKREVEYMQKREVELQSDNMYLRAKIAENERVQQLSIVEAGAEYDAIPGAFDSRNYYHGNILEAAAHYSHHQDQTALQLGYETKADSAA

As for c-fos SRE, pAS76 EcoRV fragment, the Kd – broadly, the constant that tells how readily two partners part at equilibrium – was determined as 10.6 nM.
